In publication PMC4293345 (Molecular and cellular neurosciences, 2014):
Where two headings read alike, the source gives them in different places.

Columns and labels:
[1] = molecular target: T1, MBP-tagged NCS-1 (neuronal calcium sensor-1) (UniProt P62166 1-190); assay: pull-down
[2] = molecular target: T1, MBP-tagged NCS-1 (neuronal calcium …); assay: pull-down; remark: listed apart in the source

T1 sequence (P62166 whole entry): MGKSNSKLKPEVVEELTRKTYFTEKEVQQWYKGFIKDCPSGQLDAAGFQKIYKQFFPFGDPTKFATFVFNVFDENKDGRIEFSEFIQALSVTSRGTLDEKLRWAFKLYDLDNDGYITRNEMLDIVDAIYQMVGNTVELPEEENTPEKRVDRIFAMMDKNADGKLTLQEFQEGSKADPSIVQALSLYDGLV

B1: GST-tagged IQ-like domain of CaV2.1 (domain or fragment)
chain: LMALIRTALDIKIAKGGADKQQMDAELRKEMMAIWPNLSQKTLDLLVTPHKSTDLTVGKIYAAMMIMEYYRQSKAKKLQAMREEQNRTPLMFQRMEPPSPTQEGGPSQNALPSTQLD
- relative binding (ratio of IQ-GST to NCS-1-MBP) [1]: 0.56 ± 0.06
- relative binding (ratio of IQ-GST to NCS-1-MBP) [2]: 0.57 ± 0.06
